Measurements reported in article PMC5245964 (2017).

Molecular target: MBP-M18BP1^1-140-8His (Homo sapiens (Human), UniProt Q6P0N0)
Assay: amylose-resin pull-down, CBB-stained gel; Mis18β Yippee domain alone does not bind; binding requires the Mis18α:Mis18β Yippee heterodimer (Mis18α Yippee domain present)

MBP-M18BP1^1-140-8His, sequence (Q6P0N0 1-140, one chain of several): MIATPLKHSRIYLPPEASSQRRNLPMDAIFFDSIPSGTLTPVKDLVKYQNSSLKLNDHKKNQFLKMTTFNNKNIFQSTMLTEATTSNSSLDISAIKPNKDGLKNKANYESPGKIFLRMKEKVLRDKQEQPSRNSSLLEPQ

B1: 6His-Mis18β^73-189 (protein)
chain: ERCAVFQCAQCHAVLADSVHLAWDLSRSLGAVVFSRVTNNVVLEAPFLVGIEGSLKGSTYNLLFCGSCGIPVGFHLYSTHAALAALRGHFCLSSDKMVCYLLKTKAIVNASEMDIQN
B1: no binding.
